Test results taken from patent US20170355766A1.

Tests used:
Experiment in all cases: SPR (Biacore)
[1] = target: human FcγRIIb receptor protein (R&D Systems) (human) (UniProt P31994)
FcγRIIaR (human) = FcγRIIaR (human) (UniProt P12318)
[2] = target: human V158 FcγRIIIa receptor protein (6xHis and GST tags) (human) (UniProt P08637)
[3] = target: human H131 FcγRIIa receptor protein (6xHis and GST tags) (human) (UniProt P12318)
[4] = target: human FcγRI receptor protein (R&D Systems) (human) (UniProt P12314)
human FcγRI receptor protein (R&D Systems) (human), sequence (P12314 16-288 limits assumed): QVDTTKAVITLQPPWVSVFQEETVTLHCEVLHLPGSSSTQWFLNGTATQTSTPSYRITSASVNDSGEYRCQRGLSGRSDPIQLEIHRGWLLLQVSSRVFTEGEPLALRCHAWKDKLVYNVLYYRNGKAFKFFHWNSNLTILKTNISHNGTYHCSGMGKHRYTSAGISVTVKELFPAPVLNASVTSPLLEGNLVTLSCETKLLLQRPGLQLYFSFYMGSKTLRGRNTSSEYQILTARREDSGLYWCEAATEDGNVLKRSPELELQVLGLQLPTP

FcγRIIIaF (human) = FcγRIIIaF (human) (UniProt P08637)
FcγRIIIaF (human), sequence (P08637 17-208 limits assumed): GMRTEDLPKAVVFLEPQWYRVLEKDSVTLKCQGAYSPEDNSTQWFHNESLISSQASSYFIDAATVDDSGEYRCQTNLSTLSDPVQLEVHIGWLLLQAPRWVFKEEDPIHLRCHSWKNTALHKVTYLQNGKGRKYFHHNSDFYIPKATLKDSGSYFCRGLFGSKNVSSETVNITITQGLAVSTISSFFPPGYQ

FcγRIIaR (human), sequence (P12318 34-217 H167R limits assumed): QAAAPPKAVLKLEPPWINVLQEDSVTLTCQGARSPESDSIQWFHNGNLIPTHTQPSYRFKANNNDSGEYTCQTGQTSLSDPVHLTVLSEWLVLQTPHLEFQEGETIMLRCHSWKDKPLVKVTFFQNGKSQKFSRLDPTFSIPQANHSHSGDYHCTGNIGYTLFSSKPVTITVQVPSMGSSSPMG
human V158 FcγRIIIa receptor protein (6xHis and GST tags) (human), sequence (P08637 17-208 F176V limits assumed): as the sequence (P08637 17-208 limits assumed) above, with F160V counted along it
human FcγRIIb receptor protein (R&D Systems) (human), sequence (P31994 46-217 limits assumed): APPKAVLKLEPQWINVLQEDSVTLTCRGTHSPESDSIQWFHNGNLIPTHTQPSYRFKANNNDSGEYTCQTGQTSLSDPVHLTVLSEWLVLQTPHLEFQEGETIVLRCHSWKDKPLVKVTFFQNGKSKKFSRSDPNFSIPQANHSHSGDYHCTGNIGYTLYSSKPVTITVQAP
human H131 FcγRIIa receptor protein (6xHis and GST tags) (human), sequence (P12318 34-217 limits assumed): as the sequence (P12318 34-217 H167R limits assumed) above, with R134H counted along it

Substance | Fold FcγRIIb [1] | Fold FcγRIIaR (FcγRIIaR (human)) | other results
G237K (antibody) | 0.0147 fold | 0.00859 fold | –
S267E/H268E/L328F (antibody) | – | – | Fold FcγRIIIaV [2]: 0.092 fold
G236V (antibody) | 0.0147 fold | – | –
anti-CD19 IgG1/2 ELLGG antibody with S267E/L328F | 221 fold | 269 fold | Fold FcγRIIaH [3]: 0.993 fold; Fold FcγRI [4]: 2.35 fold
S267E/A327E (antibody) | – | – | Fold FcγRIIIaV [2]: 0.00894 fold
S267E/A327D (antibody) | – | – | Fold FcγRIIIaV [2]: 0.00199 fold
G236T (antibody) | 0.00225 fold | – | –
L235S (antibody) | 0.0147 fold | 0.00859 fold | –
anti-CD19 WT IgG1 antibody (HuAM4G7 Fv, native human IgG1 Fc) | – | – | Fold FcγRIIIaF (FcγRIIIaF (human)): 1 fold
G236S (antibody) | – | – | Fold FcγRIIIaV [2]: 0.00367 fold
G237E (antibody) | 0.0147 fold | 0.00859 fold | –
L235P (antibody) | 0.00585 fold | – | –
G236R (antibody) | 0.0147 fold | 0.00859 fold | –

Continued, in another order:

Fold FcγRIIb [1] | Fold FcγRIIaR (FcγRIIaR (human)) | Substance | other results
0.0147 fold | 0.00859 fold | G237P (antibody) | –
0.0147 fold | 0.00859 fold | G236F (antibody) | –
0.0147 fold | 0.00859 fold | G236K (antibody) | –
0.147 fold | – | L235N (antibody) | –
0.0147 fold | 0.00859 fold | L234K (antibody) | –
